Here are results for 5 molecules from PMC7749166 (Communications Biology, 2020).

For experiment [1], the system named is C5aR. Particulars: cited from earlier work. The text has this:
GPCRs represent the largest human membrane protein family, having overall more than 800 members, and constitute a “control panel” of the cell[27]. […] However, the peptidic nat ...

The test system of experiment [2] is C5aR. The settings on record: cited from earlier work. An excerpt: G-protein-coupled receptors (GPCRs) are a large family of versatile and dynamic cell surface receptors expressed in almost all tissue types. Upon ligand binding to highly conserved orthosteric binding sites, GPCR pass from a quiescent to an active state, initiating signal transduction. The conservation of orthosteric binding sites throughout the GPCR superfamily and a poor understanding of the mechanism underneath their activation cycle are two key factors currently hampering the development of specific drugs towards a specific sub-type in a GPCR family. […] We simultaneously recorded FD-based AFM height images and adhesion maps (Fig. 3b, c) and extracted FD curves located on C5aR having their native orientation (based on our height criterion) (Fig. 3d). Generally, force-probing methods such as FD-based AFM measure the strength of single bonds under an externally applied force. Described first by the Bell-Evans model, an external force stressing a bond reduces the activation-energy barri ...
This is another data set of the same source.

In experiment [3] the target is T1, wild type C5a anaphylatoxin chemotactic receptor 1 (C5aR), reconstituted in DOPC/CHS liposomes (human, UniProt P21730 1-350, sulfonated tyrosine residues (Y11 and Y14)).
T1 construct: C5a anaphylatoxin chemotactic receptor 1 (C5aR), human; wild type; Receptors lie in both orientations in the bilayer; also called C5aR^WT; wtC5aR; source: HEK-293S GnTI- cells (BacMam), purified (Ni-NTA, anti-Flag M1 resin, SEC), reconstituted in DOPC/CHS liposomes; not shown: His8, C-terminal, kept
T1 sequence (looked up): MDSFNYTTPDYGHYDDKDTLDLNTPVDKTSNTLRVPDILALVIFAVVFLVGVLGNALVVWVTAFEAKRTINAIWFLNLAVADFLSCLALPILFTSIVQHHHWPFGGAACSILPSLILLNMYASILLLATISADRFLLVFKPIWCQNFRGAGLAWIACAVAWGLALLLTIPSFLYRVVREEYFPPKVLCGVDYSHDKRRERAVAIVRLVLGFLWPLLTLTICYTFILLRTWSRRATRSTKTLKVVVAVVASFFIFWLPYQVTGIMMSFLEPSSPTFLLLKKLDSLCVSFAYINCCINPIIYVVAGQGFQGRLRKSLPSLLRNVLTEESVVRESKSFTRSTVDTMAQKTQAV
The experiment can be described thus: AFM dynamic force spectroscopy (FV- and FD-based AFM, Friddle-Noy-de Yoreo fit); PMX53-Gly3-Cys coupled by its Cys to a PEG27-maleimide tip; C5aR (wild type or mutant) in DOPC/CHS liposomes adsorbed on mica; imaging buffer 20 mM HEPES, 300 mM NaCl; ≈24 °C; Kd calculated from ΔGbu = kbT × ln(0.018 Kd). The settings on record: both partners purified.

In experiment [4] the target is C5aR^WT incubated with PMX53 (effector site blocked) (human) (UniProt P21730). The experiment can be described thus: AFM dynamic force spectroscopy (FV- and FD-based AFM, Friddle-Noy-de Yoreo fit); C5a tethered by its N-terminal His6-tag to a tris-NTA-Ni2+ PEG27 tip; C5aR (wild type, mutant, or wild type incubated with PMX53) in DOPC/CHS liposomes adsorbed on mica; imaging buffer 20 mM HEPES, 300 mM NaCl; ≈24 °C; Kd calculated from ΔGbu = kbT × ln(0.018 Kd).

For experiment [5], the target named is T1, wild type C5a anaphylatoxin chemotactic …. Described as above. The settings on record: both partners purified.
In experiment [6] the target is T2, C5aRΔTyr mutant (Y11F and Y14F), reconstituted in DOPC/CHS liposomes (human, UniProt P21730 1-350, Y11F | Y14F).
T2 construct: C5a anaphylatoxin chemotactic receptor 1 (C5aR), human; lack of tyrosine sulfonation validated by western blot; The methods print the mutations as 'Y11F and F14F'; the results print Y11F and Y14F; also called C5aR∆Tyr; source: HEK-293S GnTI- cells (BacMam), purified, reconstituted in DOPC/CHS liposomes
T2 sequence (looked up): T1 sequence (looked up) with Y11F, Y14F
Described as above. The settings on record: both partners purified.

Numbering of substitutions follows the chain as printed. Read-outs that look alike come from different tables or passages of the source. Bridge positions count the residues as written; N and C are the ends. Square brackets hold non-standard residues; d marks the D form. Ends that are not written are not given here. dCha = N[C@H](CC1CCCCC1)C(=O)O; Orn = NCCC[C@H](N)C(=O)O

On to `Cc1ccc(NC(=O)[C@H]2CCCN(C(=O)c3c(C)cccc3F)[C@H]2c2ccc(NC3CCCC3)cc2)cc1C(F)(F)F` [avacopan], for which the antagonist action result with C5aR [1] (recent structural studies) is “allosteric modulators with highly reversible action”. In addition, in the experiment on C5aR [1] (to advance into late-stage clinical trials), the therapeutic efficacy entry is “sufficient therapeutic efficacy”.

As to “Ace-Phe-[{Orn}-Pro-{D-Cha}-Trp-Arg] (sidechain bridge or staple) [PMX53, cyclic antagonist peptide that mimics the C-terminal structure of the endogenous C5a ligand]”, in the experiment with C5aR [2], the “affinity towards the effector site” value was “nanomolar affinity”. In addition, the antagonist action entry in the experiment on C5aR [1] is reported as “potent orthosteric antagonist with insurmountable action”.

On to `CCCCn1c(-c2ccccc2)nc(-c2ccccc2)c1CN(Cc1ccc2c(c1)OCO2)Cc1ccc2c(c1)OCO2` [NDT9513727], for which, in the experiment with C5aR [1] (recent structural studies), the antagonist action entry is listed as “allosteric modulators with highly reversible action”.

B1: PMX53-Gly3-Cys (Cys-Gly3-Phe-[{Orn}Pro-{D-Cha}-Trp-Arg]) (peptide)
chain: CGGGF[Orn]P[dCha]WR
modifications: lactam 6-C; not fully specified; printed as Cys-Gly3-Phe-[{Orn}Pro-{D-Cha}-Trp-Arg]
For orientation: Kd means the constant that tells how readily two partners part at equilibrium. Take B1: the Kd in experiment [3] was 4.7 nM.

B2: complement C5a anaphylatoxin with N-terminal His6-tag (ligand, human, UniProt P01031 678-751, looked up)
chain: TLQKKIEEIAAKYKHSVVKKCCYDGACVNNDETCEQRAARISLGPRCIKAFTECCVVASQLRANISHKDMQLGR
notes: C5a anaphylatoxin, the 74-amino acid cut product of complement C5; numbers count on: C5a itself (R74 is its C-terminal residue); Tethered by its His6-tag to a tris-NTA-Ni2+ PEG27 AFM tip; C5a from R&D Systems is named only for the GTPgammaS assay; also called C5a ligand; endogenous C5a ligand; not shown: His6, N-terminal, kept
For the molecule B2, the dissociation constant (Kd) in experiment [4] was 800 mM; in experiment [5] it was roughly 4.5 nM; in experiment [6], roughly 20 mM. The equilibrium force Feq in experiment [4] is 29 pN. Further, in experiment [4], the residence time τ0.5 is 0.2 ms.
